Our source for the protein production values is a protein production outcome set (Wang et al. 2014).
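Further: failed if final PepcDB status was selected cloned or expressed and not failed if soluble or beyond.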

This series in a line: label from the status in PepcDB records.
Consider “MTSLNRPPFDFKTQYSLGFNAQDDEIVVDFFCGGGGAGTGLEMGLGRKVSVAKNHSAAAISMHTANHPGAKHFTTDVFDGDPDTECGGKAVGWFHMSPDCTHHSQAAGGQPRKREIRNLSWIGLKWAGKKKPRVVSLENVKQILQWGPLVAKRCKSTGRVVKLGGGIAAPGEVVPVDQQFLVPDPARRGQTWAVFVAELERLGYAVEWRVVRACDFGAPTSRERLFMIARCDGQSIVWPEPTHAKRPSKGQQPLKSAAECIDFSDLGKSIFERKKDLAQATLRRVAKGM”, for which the protein production entry is listed as “failed”. Turning to “QRRLSIFVDGNNMFYAQQKNNWFFDPRRVLDYFTCDPTVRLINAFWYTGLKDSQDQRGFRDALISLGYTVRTKILKEYYDDVSGRYSQKANLDIEIVVDMFNTVDQYDQVILFSGDGDFERAIELLRSKNTHITVVSTEGMIARELRNATDCYIDLNNLRAEIEKT”, the protein production entry is “failed”.

As to “MTEAATFHLEMTRQIRAPRERVFDAFTDQAALAAWHCPRGMRVLEASADARVGGRYRLVMGSRDGSQHMVGGEYQKIDRANFLAYTWQWEGGELPEGTRTLIEVTLTDKDGGTLLHMRHSGFPDTATRDAHTSGWQSVFNRLSDYVDAEGSAGTVTVYGDGRSTYVRTVRMALAEKGIAYKLDPLTPRDPELLKHNPFGRIPAFTDGPLEFFETRAILSYIEEAFDGPSLISQAGPTARARCEQWISLINCHAYDAMVRRYVLQYVFPSGENGQPDRKTIDAALPDIAKQLDALEHAYGGRDFLAGNTLTMADLFFAPIVEYLGRFPESAAMLESRPNIRRAHAAMRARPSYAATQPNFG”, the protein production result is listed as “failed”. As to “MQKGKDLTLRLMIVDDSVESAETIVTALRNGGIAVRPSRPQSQEELASMLSGQIDLAILGQAQQIPMSALQTQIAGSGKDIPILLLAERIEENALVEAASHGVRAIALRHRPAHLLALVRSEWDDLQARRGLRRIEAQMRETERRCDALIASSRDPIAYVHEGMHIRANDAYLEMFGFESFDDVEGISLLDMIAAQYVDDFKQLLKAMSKGEPPPAQYKLDARRVEGDTFPATMEFATATYEGEPCIQVVFRRREEFDPELAREVEDLRQRDQVTGLLNRPTFMVALEQAVAQAGRSEGQSGFLLIEPDHYARILPEFGLDSADALIAALAAHVASVLDDSVLAARFGEHSFALLLNGNYARTHALAETVRNAFAQHVFSVGTRSATVTVSIGGVQIGEKIASIGQVLNRGTEAVRTTAELGGNAVSIYDPAAADRAEEERIERWVEQLREALVGDGFLLHYQPVLNLQGEPLELYQAFLRLERNGEMMSPNAFMAIAEEHDLVTEIDRWVVARAIRQLGERQRAGHKTHLLVRIGPNSFSDPQMIDTIREQLAVYGVPGERLWLQTPESKVFTHLRNAQQFLAAVSAMDCKVGLEQFGSGLDSFQLLAHFHPAFLKLDRGITGDIASARDSQEKIREITSRAQPAGILTMAEFVADAQSMSSFFSAGVDYVQGDFVAPTGPLMNYEFG”, the protein production entry is listed as “failed”. In the case of “MSLTDTKVKNAKPSEKVVKLTDGFGLYLLVHTNGSKYWQLGYRFEGKQKVFSIGVYPAVSLANARQRRDEAKKLLAAGVDPSAKKRADNKSVQEKRNNTRAFKTVAKSWFATKTTWSEDYQRSVWTRLETYLFPDIGNKDIAELDTGDLLVPIKKIEKLGYLEIAMRVKQYATAIMRYAVQQKMIRFNPAYDLEGAVQKPQTEHRPAIELEEIPTLLERIEGYKGRSRLTQLAIKLNLLIFIRSSELRFARWSEIDFKSGLWVIPEQREAIKGIKHSDRGAKMRRKHYVPLCEQALVILGELKDLTYDVNGDDGFILTGCYDAMKPMSENTINKALRKMGYDTKTDLCGHGFRTLACSALIESGIWPEDVVELQMSHMEKNNVRAAYTHKAKHLEQRRLMLQWWADFLDANGSGMVRPFEFAQGATQY”, the protein production entry is listed as “failed”.

On to “MSLVRSKAPLRLGLAGGGSDVSPYSDIYGGLILNATINLYAYCTIEETNSGRIEINAYDAQCCKSYLSMSQLEIDGEASLIKGVYNRIIRDYRLEPKSFKITTYNDAPAGSGLGTSSTMVVCILKAFIEWLSLPLGDYETSRLAYEIERKDLGLSGGKQDQYAAAFGGFNYMEFLQNDLVIVNPLKMKRWIVDELESSMVLYFTGRSRSSAAIINEQKKNTSEGNQTAIEAMHKIKQSAIDTKLALLKGDVGEFARILGEGWENKKKMAGAITNPMIQEAFDVATGAGAMAGKVSGAGGGGFIMFVVEPTRKEEVVRALNNLNGFVMPFQFIDDGAHGWKIYSTDKVQKEGHHHHHH”, for which the protein production result was “not failed”.

For the sequence “MKKFIILLSLLILLPLTAASKPLIPIMKTLFTDVTGTVPDAEEIAHKAELFRQQTGIAPFIVVLPDINNEASLRQNGKAMLAHASSSLSDVKGSVLLLFTTREPRLIMITNGQVESGLDDKHLGLLIENHTLAYLNADLWYQGINNALAVLQAQILKQSTPPLTYYPHPGQQHENAPPGSTNTLGFIAWAATFILFSRIFYYTTRFIYALKFAVAMTIANMGYQALCLYIDNSFAITRISPLWAGLIGVCTFIAALLLTSKR”, the protein production entry is reported as “failed”. With “MVGQIAKEMGLRAYIVGGVVRDILLGKEVWDVDFVVEGNAIELAKELARRHGVNVHPFPEFGTAHLKIGKLKLEFATARRETYPRPGAYPKVEPASLKEDLIRRDFTINAMAISVNLEDYGTLIDYFGGLRDLKDKVIRVLHPVSFIEDPVRILRALRFAGRLNFKLSRSTEKLLKQAVNLGLLKEAPRGRLINEIKLALREDRFLEILELYRKYRVLEEIIEGFQWNEKVLQKLYALRKVVDWHALEFSEERIDYGWLYLLILISNLDYERGKHFLEEMSAPSWVRETYKFMKFKLGSLKEELKKAKENYEVYRLLKPLHTSVLLLLMLEEELKEKIKLYLEKLRKVKLPKEKIEELKKQGLKGKELGERIEELKREIMNKIKLAAALE” the entry was “not failed”. In the case of “MRTPLIDRRDFLRAAGIGFAAVMAPSAWAKTLAANAVFATAFVKRDGSFGAAILSEAGKVLHAIDLPDRGHDVTFDPISKRSVVFARQPGTFAVVFDHSGRDAPQTVASISGRHFFGHGVFSPDGALLYATENDFDNAAGVIGIYDARAKFSRVGEFPTYGMGPHELLLLGDGRTMAVANGGIETHPDYGRAELNIATMKPSYVLIDRVTGDLIEKHELPASLHQLSIRHMDTDPSGTVWFGCQYRGPGTDRPLLVGRAVRGKELQLLDMPQDVLSGFRNYIGSVAANLSAGSVAVSSPEGNSLVVIDAASGRVVSSSALVEVCGLAPDGSGFIATTGAGEIIEGSGATRSEPDYVWDNHMLRIERA”, the protein production result was “failed”. Consider “ELVVKRGEIFGVVGPTGSGKSNLISDIEQLAQGDTPSNRKILVNGNVPDTEMRRDPRKRRIAQLSQNMNFLADMTVEEFLIMHAKSRGMNSEGIVDKVIKLANNLTGEPIEKDYNLTILSGGQSRSLMVADVAVISDSPIVLIDEIENAGIKKHEALELLAGCGKIVMVITHDPVLALMTTRRVVMRNGGMNEIIETTE”, for which the protein production entry was “failed”.

In the case of “MTIYSPDTINFNGVSGDRYWFDEPFPYTGVADIDERLSGFPVAVFLPHHRPRQETPLVIGLQGMCAPYGWNAFIVPILIEMGIAVALFDPPLSGERSLVRTSTTLVQNEIKPLIDRGIPFDTALFLSIFRTTARDIGKIREFCGDRYGLTDSRLALFGVSMGVLLSAYAFTANSLGDRLLGTIGHADLPSFAKSWGRPFLPDLAASPLGGLAESLLQRLQPDLAPLFNLLRLTKNLKYQDEYAWDCNPMNYIQQVESHRRVRFLIGANDSIVKIKDARACAQKFPDGDCYIVPGMGHGTRQSGVSFVDHVRYFLATQLGDWRG”, the protein production entry was “failed”. With “MKKIAVTYGEEKYSYADIIKYVNYYSEFLDISKGDRVALMMENRPESIFSFFSIWAKKGIALSLDAGYTVEQLAFVLNDSKPKYIFVSNKIKEVVEKANEQVGNIVKIMVVDEITLPTDYVIKQEEYENDSNEDLAVIVYTSGTTGNPKGVMITYELEHHHHHH”, the protein production entry is “not failed”. The entry for “MAPCLENVACVNLSAMPPAPPSPQPVSHKQAATLCRQGRTCALKSGSNESGGSVTSTYTSYRLISQDIGKSLERVSKQPDVARETEYYREKIGSVKSIDDFMADTRLYNYALKAHGLEDMAYAKAFIRKVLTEGASDKNAFANKLSDNRYAELAKSLDFAGLGAAATATEAAKSGVIGNYARQTLEQEAGDDNNGVRLALYFERKAPTIKSGLDFLADDALAQVFRTTFNLPDAFAAADVDKQAALIEKSINIKDLQDPEKVGKLLERFTIMWEMQNPSTTYDPLAVFGSSSGYGISPDLLISINSLKLGGKLEHHHHHH” is “not failed”.
